From publication PMC5430537, “The tarantula toxin β/δ-TRTX-Pre1a highlights the importance of the S1-S2 voltage-sensor region for sodium channel subtype selectivity” (Scientific Reports, 2017)
Bridge positions count the residues as written; N and C are the ends. Peptide text beside a SMILES is read from it.

Tests used:
[1] = target: KV2.1 chimaera with the S3-S4 linker region of hNaV1.7 DIV
[2] = target: KV2.1 chimaera with the S3-S4 linker region of hNaV1.7 DII
[3] = target: rat NaV1.2 α-subunit (rat) (UniProt P04775)
rat NaV1.2 α-subunit (rat), sequence (P04775 whole entry): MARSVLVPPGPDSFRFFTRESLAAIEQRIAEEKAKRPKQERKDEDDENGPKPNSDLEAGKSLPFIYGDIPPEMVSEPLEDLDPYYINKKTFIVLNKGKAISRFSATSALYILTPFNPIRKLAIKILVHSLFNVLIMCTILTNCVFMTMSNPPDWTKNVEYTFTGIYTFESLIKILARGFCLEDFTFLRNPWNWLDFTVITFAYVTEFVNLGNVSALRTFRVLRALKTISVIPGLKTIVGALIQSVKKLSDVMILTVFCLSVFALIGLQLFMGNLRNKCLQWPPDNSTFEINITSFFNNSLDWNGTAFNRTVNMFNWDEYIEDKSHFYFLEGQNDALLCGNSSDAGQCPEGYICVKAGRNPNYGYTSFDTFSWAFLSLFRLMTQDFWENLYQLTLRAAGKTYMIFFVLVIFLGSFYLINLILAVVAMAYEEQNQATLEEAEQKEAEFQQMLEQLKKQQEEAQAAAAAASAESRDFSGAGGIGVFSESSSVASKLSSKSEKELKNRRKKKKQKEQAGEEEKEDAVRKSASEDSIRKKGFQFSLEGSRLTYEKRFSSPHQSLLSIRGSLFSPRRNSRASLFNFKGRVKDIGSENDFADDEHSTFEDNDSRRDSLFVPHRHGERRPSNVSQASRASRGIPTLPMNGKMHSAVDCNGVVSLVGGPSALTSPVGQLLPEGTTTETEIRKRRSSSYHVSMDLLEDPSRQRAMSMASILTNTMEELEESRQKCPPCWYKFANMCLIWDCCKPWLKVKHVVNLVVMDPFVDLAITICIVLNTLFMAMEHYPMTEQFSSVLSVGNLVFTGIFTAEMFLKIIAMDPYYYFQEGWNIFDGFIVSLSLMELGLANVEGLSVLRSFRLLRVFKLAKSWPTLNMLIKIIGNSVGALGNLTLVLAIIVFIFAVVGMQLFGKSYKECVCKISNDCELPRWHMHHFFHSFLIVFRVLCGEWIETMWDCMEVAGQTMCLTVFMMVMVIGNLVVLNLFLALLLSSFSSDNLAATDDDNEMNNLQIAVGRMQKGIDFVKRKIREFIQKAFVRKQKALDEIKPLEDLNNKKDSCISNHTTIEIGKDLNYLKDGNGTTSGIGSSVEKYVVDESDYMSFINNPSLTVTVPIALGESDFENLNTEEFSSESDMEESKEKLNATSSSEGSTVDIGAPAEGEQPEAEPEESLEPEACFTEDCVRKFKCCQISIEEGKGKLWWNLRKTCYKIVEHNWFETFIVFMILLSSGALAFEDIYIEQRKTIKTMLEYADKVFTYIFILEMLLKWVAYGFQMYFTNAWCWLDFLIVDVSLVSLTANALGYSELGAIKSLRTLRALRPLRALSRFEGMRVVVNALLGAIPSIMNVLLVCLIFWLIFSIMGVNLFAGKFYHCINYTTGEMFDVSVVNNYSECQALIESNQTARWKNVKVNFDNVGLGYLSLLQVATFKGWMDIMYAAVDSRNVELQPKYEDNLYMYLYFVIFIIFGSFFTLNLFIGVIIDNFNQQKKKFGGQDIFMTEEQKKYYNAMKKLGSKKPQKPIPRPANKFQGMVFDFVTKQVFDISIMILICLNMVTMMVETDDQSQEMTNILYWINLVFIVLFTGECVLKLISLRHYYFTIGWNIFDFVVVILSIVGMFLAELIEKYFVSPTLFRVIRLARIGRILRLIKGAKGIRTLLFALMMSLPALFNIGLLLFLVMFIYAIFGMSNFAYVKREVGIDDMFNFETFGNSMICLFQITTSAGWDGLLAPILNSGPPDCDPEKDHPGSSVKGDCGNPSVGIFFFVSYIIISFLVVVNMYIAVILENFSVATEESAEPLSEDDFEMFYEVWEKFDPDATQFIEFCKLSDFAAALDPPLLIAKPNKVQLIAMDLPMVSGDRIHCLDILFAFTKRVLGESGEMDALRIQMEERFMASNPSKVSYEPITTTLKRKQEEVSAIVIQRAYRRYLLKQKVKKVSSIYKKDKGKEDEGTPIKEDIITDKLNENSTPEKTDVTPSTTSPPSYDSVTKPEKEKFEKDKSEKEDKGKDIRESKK

[4] = target: rat NaV1.3 α-subunit (rat) (UniProt P08104)
rat NaV1.3 α-subunit (rat), sequence (P08104 whole entry): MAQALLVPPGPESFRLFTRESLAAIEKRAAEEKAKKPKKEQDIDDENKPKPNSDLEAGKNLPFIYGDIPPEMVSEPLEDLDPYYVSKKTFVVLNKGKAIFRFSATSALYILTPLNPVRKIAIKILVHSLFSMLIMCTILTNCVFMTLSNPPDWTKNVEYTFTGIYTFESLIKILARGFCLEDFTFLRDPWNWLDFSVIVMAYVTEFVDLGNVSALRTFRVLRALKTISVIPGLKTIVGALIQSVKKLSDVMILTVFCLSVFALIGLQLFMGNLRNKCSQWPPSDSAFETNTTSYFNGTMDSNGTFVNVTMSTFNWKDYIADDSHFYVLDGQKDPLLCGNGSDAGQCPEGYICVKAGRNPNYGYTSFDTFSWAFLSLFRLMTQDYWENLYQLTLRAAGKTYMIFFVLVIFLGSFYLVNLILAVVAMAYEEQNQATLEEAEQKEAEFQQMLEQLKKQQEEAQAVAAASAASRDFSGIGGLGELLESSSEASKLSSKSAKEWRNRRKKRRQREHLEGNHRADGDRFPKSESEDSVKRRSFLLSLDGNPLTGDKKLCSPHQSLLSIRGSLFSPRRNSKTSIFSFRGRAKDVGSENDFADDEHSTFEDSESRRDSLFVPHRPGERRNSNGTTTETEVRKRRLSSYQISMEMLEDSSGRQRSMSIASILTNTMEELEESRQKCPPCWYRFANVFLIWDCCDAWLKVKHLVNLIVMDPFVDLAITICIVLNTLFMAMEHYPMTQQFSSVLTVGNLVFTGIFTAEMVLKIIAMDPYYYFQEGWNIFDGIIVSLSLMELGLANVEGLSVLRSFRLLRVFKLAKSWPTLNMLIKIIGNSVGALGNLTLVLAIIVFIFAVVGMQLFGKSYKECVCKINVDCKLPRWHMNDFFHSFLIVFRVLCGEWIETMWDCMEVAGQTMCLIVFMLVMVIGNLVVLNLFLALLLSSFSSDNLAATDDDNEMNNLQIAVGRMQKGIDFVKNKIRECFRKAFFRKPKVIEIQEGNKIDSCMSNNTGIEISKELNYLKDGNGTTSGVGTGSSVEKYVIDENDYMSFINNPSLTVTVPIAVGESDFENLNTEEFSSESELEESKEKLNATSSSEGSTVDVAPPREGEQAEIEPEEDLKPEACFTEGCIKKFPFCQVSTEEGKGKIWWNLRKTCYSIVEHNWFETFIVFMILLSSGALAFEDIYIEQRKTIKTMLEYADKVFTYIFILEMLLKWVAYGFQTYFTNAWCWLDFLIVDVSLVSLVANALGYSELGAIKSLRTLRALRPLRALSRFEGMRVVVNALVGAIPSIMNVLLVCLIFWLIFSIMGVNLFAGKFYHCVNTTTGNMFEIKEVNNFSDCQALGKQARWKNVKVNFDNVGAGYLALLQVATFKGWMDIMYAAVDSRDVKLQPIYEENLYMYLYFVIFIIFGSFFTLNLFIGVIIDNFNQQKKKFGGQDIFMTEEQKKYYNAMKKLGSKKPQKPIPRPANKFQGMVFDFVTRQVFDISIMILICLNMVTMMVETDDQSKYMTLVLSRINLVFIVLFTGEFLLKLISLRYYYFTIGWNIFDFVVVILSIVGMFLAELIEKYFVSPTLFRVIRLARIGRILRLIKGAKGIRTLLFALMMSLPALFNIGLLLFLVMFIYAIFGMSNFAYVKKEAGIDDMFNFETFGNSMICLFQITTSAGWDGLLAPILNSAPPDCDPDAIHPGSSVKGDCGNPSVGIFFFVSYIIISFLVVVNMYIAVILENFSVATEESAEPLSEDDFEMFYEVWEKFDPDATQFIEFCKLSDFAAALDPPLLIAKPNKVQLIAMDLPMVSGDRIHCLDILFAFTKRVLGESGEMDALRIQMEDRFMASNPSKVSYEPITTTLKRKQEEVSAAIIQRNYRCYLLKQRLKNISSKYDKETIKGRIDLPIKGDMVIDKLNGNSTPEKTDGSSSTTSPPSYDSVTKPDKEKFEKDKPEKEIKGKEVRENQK

[5] = target: human NaV1.7 α-subunit (in oocytes) (human) (UniProt Q15858)
[6] = target: human NaV1.1 α-subunit (in HEK293 cells) (human) (UniProt P35498)
[7] = target: human NaV1.7 α-subunit (in HEK293 cells) (human) (UniProt Q15858)
[8] = target: human NaV1.6 α-subunit (in HEK293 cells) (human) (UniProt Q9UQD0)
[9] = target: human NaV1.1 α-subunit (in HEK293 cells) (human) (UniProt P35498); remark: listed apart in the source
[10] = target: rat NaV1.3 α-subunit (rat) (UniProt P08104); remark: listed apart in the source
[11] = target: human NaV1.5 α-subunit (human) (UniProt Q14524)
[12] = target: rat NaV1.2 α-subunit (rat) (UniProt P04775); remark: listed apart in the source
[13] = target: rat NaV1.4 α-subunit (rat) (UniProt P15390)
[14] = target: rat NaV1.3 α-subunit (rat) (UniProt P08104); remark: listed apart in the source
[15] = target: human NaV1.7 α-subunit (in oocytes) (human) (UniProt Q15858); remark: listed apart in the source
[16] = target: rat NaV1.3 α-subunit (rat) (UniProt P08104); remark: listed apart in the source
NaV1.7 VSD IV = conditions: cited from earlier work
Text: (§1) NaV channel fast inactivation is controlled by the movement of the DIV voltage-sensing domain[17]. […] However, all these peptides share less than 50% similarity with Pre1a (See Fig. 1d) and have very differ ...

NaV channel DII = conditions: mutagenesis; cited from earlier work
Text: The striking differences in effects on NaV1.1, 1.2 and 1.3 are of particular significance for understanding the molecular basis of Pre1a’s subtype selectivity as these three channels have essentially identical S3-S4 linker regions in both DII and DIV (Fig. 7a) (note that NaV1.1 DII S3-S4 has an M to V ...

rNaV1.2 = target: T1, rNaV1.2 (Rattus norvegicus, UniProt P04775); test: Two-electrode voltage clamp, rNaV1.2 expressed in Xenopus oocytes; format: cell-based; conditions: α-subunit alone, clamped at −90 mV, 50 ms step to −10 or 0 mV, recombinant Pre1a, n ≥ 5, read-out: peak current inhibition IC50
T1 construct: expressed in transfected cells; host or cells: Xenopus laevis oocytes (cRNA injection, alpha subunit alone)
T1 sequence (P04775 whole entry): as the sequence (P04775 whole entry) above
Protocol: (§2) The preparation and injection of Xenopus laevis oocytes and NaV channel recordings using two-electrode voltage-clamp (TEVC) were carried out as described previously. Capped cRNA encoding rat NaV1.2, NaV1.3 and NaV1.4, and human NaV1.5 and NaV1.7 were injected at 20–40 ng of cRNA/oocyte and kept at 17–18 °C in ND96 solution containing (in mM) 96 NaCl, 2 KCl, 1 CaCl2, 2 MgCl2, 5 HEPES, 5 pyruvic acid, 50 µg/ml gentamicin (pH 7.4), and horse serum (2.5%). Membrane currents were recorded 2–5 days after injection. Oocytes were clamped at −90 mV and currents were elicited by a 50 ms depolarising step to −10 or 0 mV every 10 s for concentration response curves. Both peak and late current (50 ms post peak) were analysed. The concentration response curves were fitted to the Hill equation (GraphPad Prism 6). Current-voltage (I-V) relationships and voltage-dependence of fast inactivation were determined using a family of 100 ms conditioning pulses from −100 mV to +50 mV (+60 mV for rNaV1.3) in 5 mV steps, followed by a test depolarisation step to 0 mV with a 20 s sweep interval from a holding potential of −90 mV. […] The half-activation potential (V 1/2) was determined using a Boltzmann fit (GraphPad Prism 6). […]

hNaV1.1 [17] = target: T2, hNaV1.1 (Homo sapiens, UniProt P35498); test: QPatch automated patch clamp, HEK293 cells stably co-expressing hNaV1.1 and NaVβ1; format: cell-based; conditions: HEK
Protocol: (§3) For patch clamp analysis, HEK293 cells stably co-expressing the hNaV1.1, hNaV1.6, or hNaV1.7 α-subunit with the NaVβ1-subunit (SB Drug Discovery) were cultured following manufacturer guidelines. Cells were removed from culture at 70% confluency using Detachin (Genlantis) and resuspended to 5 × 10^6 cells/mL in Ex-Cell ACF CHO Medium (Life Technologies) supplemented with 25 mM HEPES (Sigma-Aldrich) and 1 × Glutamax (Life Technologies) before being transferred to the Q-Patch Q-Stirrer and allowed to recover for 30 min before assay.
(§4) The external solution contained (in mM): 140 NaCl, 4 KCl, 2 CaCl2, 1 MgCl2, 10 HEPES, 20 TEA-Cl, 10 glucose, pH 7.4 (with NaOH) and adjusted to 315 mOsm 0.05% BSA was added to prevent adsorptive loss of peptide. The intracellular solution contained (in mM): 140 CsF, 1/5 EGTA/CsOH, 10 HEPES and 10 NaCl, pH 7.4 (with CsOH) and adjusted to 320 mOsm. Whole-cell patch-clamp experiments were performed at room temperature on a QPatch-16 automated electrophysiology platform (Biolin Scientific) using 16-channel planar patch chip plates (Q-Plates) with a patch hole diameter of 1 µm and resistance of 2 ± 0.1 MΩ. […] Pre1a concentrations were incubated for a fixed time of 5–10 min to allow steady-state activity, monitored by the I-T plot.

hNaV1.6 = hNaV1.6 (Homo sapiens, UniProt Q9UQD0); test: QPatch automated patch clamp, HEK293 cells stably co-expressing hNaV1.6 and NaVβ1; format: cell-based; conditions: HEK, with NaVβ1, QPatch16, 5–10 min incubation, holding −100 mV; n ≥ 6; read-out: peak current inhibition IC50
Protocol: as §3, §4

hNaV1.7 [18] = target: T3, hNaV1.7 (Homo sapiens, UniProt Q15858); test: QPatch automated patch clamp, HEK293 cells stably co-expressing hNaV1.7 and NaVβ1; format: cell-based
Protocol: as §3, §4

rNaV1.3 = target: T4, rNaV1.3 (Rattus norvegicus, UniProt P08104); test: Two-electrode voltage clamp, rNaV1.3 expressed in Xenopus oocytes; format: cell-based
T4 construct: expressed in transfected cells; host or cells: Xenopus laevis oocytes (cRNA injection, alpha subunit alone)
T4 sequence (P08104 whole entry): as the sequence (P08104 whole entry) above
Text: We analysed the rate of fast inactivation (defined as tau, τinact, or the time to reach 36.8% of a single exponential fit of the current decay) and the degree of persistent sodium current measured at 50 ms of depolarisation (NaV1.2 and 1.7) and 100 ms for rNaV1.3 due to the longer time required to reach complete inactivation in the oocyte expression system without β1.
The preparation and injection of Xenopus laevis oocytes and NaV channel recordings using two-electrode voltage-clamp (TEVC) were carried out as described previously. Capped cRNA encoding rat NaV1.2, NaV1.3 and NaV1.4, and human NaV1.5 and NaV1.7 were injected at 20–40 ng of cRNA/oocyte and kept at 17–18 °C in ND96 solution containing (in mM) 96 NaCl, 2 KCl, 1 CaCl2, 2 MgCl2, 5 HEPES, 5 pyruvic acid, 50 µg/ml gentamicin (pH 7.4), and horse serum (2.5%). Membrane currents were recorded 2–5 days after injection. Oocytes were clamped at −90 mV and currents were elicited by a 50 ms depolarising step to −10 or 0 mV every 10 s for concentration response curves. Both peak and late current (50 ms post peak) were analysed. The concentration response curves were fitted to the Hill equation (GraphPad Prism 6). Current-voltage (I-V) relationships and voltage-dependence of fast inactivation were determined using a family of 100 ms conditioning pulses from −100 mV to +50 mV (+60 mV for rNaV1.3) in 5 mV steps, followed by a test depolarisation step to 0 mV with a 20 s sweep interval from a holding potential of −90 mV. To determine the voltage-dependence of activation non-normalised peak current was used from the I-V family to calculate channel conductance using the equation: G(V) = I/(V − V rev), in which I, V, and V rev represent inward NaV current, test potential, and reversal potential, respectively. The half-activation potential (V 1/2) was determined using a Boltzmann fit (GraphPad Prism 6). All data points are shown as the pIC50 ± S.E.M., as well as the IC50. Replicates (n) represent separate experimental oocytes. Pre1a was resuspended in ND96 solution containing 0.1% bovine serum albumin for all activity analysis. […]

hNaV1.7 [19] = target: T3, hNaV1.7; test: Two-electrode voltage clamp, hNaV1.7 expressed in Xenopus oocytes; format: cell-based; design: expressed in transfected cells; host or cells: Xenopus laevis oocytes (cRNA injection, alpha subunit alone)
Protocol: as §2

hNaV1.1 [20] = target: T2, hNaV1.1; conditions: hNaV1.3 and hNaV1.1 peak current; cited from earlier work
Text: as §1

hNaV1.3 = hNaV1.3 and hNaV1.1 peak current; cited from earlier work
Text: as §1

NaV channels = conditions: cited from earlier work
Text: These VSD modulating peptides have been described to modify channel gating in three distinct ways depending on the domain they target and the effect on that domain[17]. Domain IV of the NaV channel α-subunit uniquely controls inactivation of the channel, thus spider peptides that interact with and hinder the normal function of VSDIV slow or inhibit fast inactivation of the channel and may result in persistent current. Conversely, spider venom peptides that interact with DI, DII, and DIII VSD modulate channel activation. Most of those discovered to date cause a shift in the voltage- ... || NaV channel fast inactivation is controlled by the movement of the DIV voltage-sensing domain[17]. […] However, all these peptides share less than 50% similarity with Pre1a (See Fig. 1d) and have very differ ...

Compound: β/δ-TRTX-Pre1a (synthetic or recombinant not stated for the experiment) (peptide)
- percent inhibition of outward (peak) current by 1 μM Pre1a [1]: 27.1%
- percent inhibition of outward (peak) current by 1 μM Pre1a [2]: 44%
- shift of the V1/2 of activation by 1 µM Pre1a, Xenopus oocytes [3]: 14.9 mV
- shift of the V1/2 of activation of the late current by 1 μM Pre1a, Xenopus oocytes [4]: 9.6 mV
- shift of the V1/2 of activation by 1 µM Pre1a, Xenopus oocytes [5]: 13.8 mV
- EC50 of inhibition of fast inactivation (late current at 10 ms from peak), QPatch, HEK cells [6]: 41.4 nM
- IC50 of inhibition of peak current, QPatch16 automated patch clamp, HEK cells [7]: 15 nM
- IC50 of inhibition of peak current, QPatch16 automated patch clamp, HEK cells [8]: 222 nM
- IC50 of inhibition of peak current, QPatch16 automated patch clamp, HEK cells [9]: 57.1 nM

Compound: recombinant β/δ-TRTX-Pre1a (peptide)
- EC50 of inhibition of inactivation (late current), as printed in the legend, Xenopus oocytes [10]: 45 nM
- percent inhibition of peak current amplitude by 1 μM Pre1a (weak), two-electrode voltage clamp, Xenopus oocytes [11]: 8.6%
- IC50 of inhibition of peak inward current, two-electrode voltage clamp, Xenopus oocytes [12]: 190 nM
- percent inhibition of peak current amplitude by 1 μM Pre1a (weak), two-electrode voltage clamp, Xenopus oocytes [13]: 16.5%
- IC50 of inhibition of peak inward current (weak), two-electrode voltage clamp, Xenopus oocytes [14]: 8000 nM
- IC50 of inhibition of peak inward current, two-electrode voltage clamp, Xenopus oocytes [15]: 114 nM
- EC50 of inhibition of inactivation (late current at 100 ms), two-electrode voltage clamp, Xenopus oocytes [16]: 45.5 nM

Compound: CCN1CC(n2nccc2-c2cc(C(F)(F)F)ccc2Oc2ccc(S(=O)(=O)Nc3ncns3)cc2C#N)C1 [GX-936]
- state in which VSD is arrested (NaV1.7 VSD IV): arrests the VSD in the inactivated state

Compound: HwTxIV
- effect of divergent residues in S2 region 1 on activity (NaV channel DII): little effect on the activity

Compound: CC[C@H](C)[C@H](NC(=O)[C@H](CCCCN)NC(=O)[C@H](Cc1ccc(O)cc1)NC(=O)[C@H](CCCCN)NC(=O)[C@@H]1CSSC[C@@H]2NC(=O)[C@H](CCCCN)NC(=O)[C@H](CC(=O)O)NC(=O)[C@H](CC(N)=O)NC(=O)[C@H](CCCCN)NC(=O)[C@@H]3CCCN3C(=O)[C@H](CO)NC(=O)[C@@H]3CSSC[C@H](NC(=O)[C@H](CCCCN)NC(=O)[C@H](Cc4ccc(O)cc4)NC(=O)[C@H](CC(N)=O)NC(=O)[C@@H]4CCCN4C(=O)[C@H](CSSC[C@H](NC(=O)[C@H](CC(=O)O)NC(=O)[C@@H](N)CCC(=O)O)C(=O)N[C@@H](CC(C)C)C(=O)NCC(=O)N[C@@H](Cc4c[nH]c5ccccc45)C(=O)N[C@@H](Cc4ccccc4)C(=O)N[C@@H](CO)C(=O)N[C@@H](CCCNC(=N)N)C(=O)N3)NC2=O)C(=O)N[C@@H](CO)C(=O)N[C@@H](CO)C(=O)N[C@@H](CCCCN)C(=O)N[C@@H](CC(=O)O)C(=O)N[C@@H](CC(C)C)C(=O)N[C@@H](Cc2c[nH]c3ccccc23)C(=O)N1)C(=O)N[C@@H](Cc1c[nH]c2ccccc12)C(=O)O [Pre1a] (H-EDCLGWFSRCSPKNDKCCPNYKCSSKDLWCKYKIW-OH; disulfide 3-18, 10-23, 17-30)
- IC50 (rNaV1.2): 190 nM
- IC50 (hNaV1.1 [17]; QPatch16, read-out: peak current inhibition pIC50 (converted)): 57.5 nM
- EC50 (hNaV1.1 [17]; late current at 10 ms from peak, read-out: inhibition of fast inactivation pEC50 (converted)): 41.7 nM
- IC50 (hNaV1.6): 222 nM
- IC50 (hNaV1.7 [18]): 15.1 nM
- EC50 (rNaV1.3; late current at 100 ms, ± S.E.M.): 45.7 nM
- selectivity for inhibiting inactivation over activation (rNaV1.3; rNaV1.3 inactivation vs activation): more than 150 fold
- IC50 (rNaV1.3; recombinant Pre1a, ± S.E.M., read-out: peak current inhibition pIC50 (converted)): 7940 nM
- IC50 (hNaV1.7 [19]): 114 nM
- selectivity for inhibiting activation over NaV1.3 (hNaV1.7 [19]; NaV1.7 activation vs NaV1.3): ~ 70 fold

Compound: O=C(Nc1ccc(S(=O)(=O)Nc2nccs2)cc1)C(c1ccccc1)c1ccccc1 [ICA-121431]
- selectivity (hNaV1.1 [20]): ~ 1000 fold
- selectivity (hNaV1.3): ~ 1000 fold

Compound: ProTx-II: spider peptide
- effect on peak current and fast inactivation (NaV channels): inhibit both peak current and fast inactivation of NaV channels
